Measurements published in patent US20250051471A1, “Anti-Abcb1 Antibodies” (WILLIAM ROBERT ARATHOON LIVING TRUST DATED AUGUST 29, 2016, priority 2021, published 2025).

B1: 15D3hmzhG1 HIR2/Fc/B1.89v1 huL1(KV2) hmz LC: humanized anti-ABCB1 mono arm antibody with B1.89v1 huL1(KV2) light chain (antibody)
heavy: EVQLVESGGVVVQPGGSLRLSCAASGFTFSRYTMSWVRQAPGKGLEWVATISSGGGNTYYPDSVKGRFTVSRDNSKNSLYLQMNSLRTEDTALYYCARYGAGDAWFAYWGQGTLVTVSSASTKGPSVFPLAPSSKSTSGGTAALGCLVKDYFPEPVTVSWNSGALTSGVHTFPAVLQSSGLYSLSSVVTVPSSSLGTQTYICNVNHKPSNTKVDKRVEPKSCDKTHTCPPCPAPELLGGPSVFLFPPKPKDTLMISRTPEVTCVVVDVSHEDPEVKFNWYVDGVEVHNAKTKPREEQYNSTYRVVSVLTVLHQDWLNGKEYKCKVSNKALPAPIEKTISKAKGQPREPQVCTLPPSREEMTKNQVSLSCAVKGFYPSDIAVEWESNGQPENNYKTTPPVLDSDGSFVLVSKLTVDKSRWQQGNVFSCSVMHEALHNHYTQKSLSLSPG
light: DIVMTQSPLSLPVTPGEPASISCRSSQTIVHSNGNTYLEWYLQKPGQSPQLLIYKVSKRFSGVPDRFSGSGSGTDFTLKISRVEAEDVGVYYCFQASHFPRTFGQGTKLEIKRTVAAPSVFIFPPSDEQLKSGTASVVCLLNNFYPREAKVQWKVDNALQSGNSQESVTEQDSKDSTYSLSSTLTLSKADYEKHKVYACEVTHQGLSSPVTKSFNRGEC
modifications: left off: another chain or arm of the molecule
notes: humanized anti-ABCB1 mono arm antibody with B1.89v1 huL1(KV2) light chain
B2: 15D3 hmz HIR2/Fc/B1VL6/CDR3v2a hmz: humanized anti-ABCB1 mono arm antibody with B1VL6/CDR3v2a light chain (antibody)
heavy: EVQLVESGGVVVQPGGSLRLSCAASGFTFSRYTMSWVRQAPGKGLEWVATISSGGGNTYYPDSVKGRFTVSRDNSKNSLYLQMNSLRTEDTALYYCARYGAGDAWFAYWGQGTLVTVSSASTKGPSVFPLAPSSKSTSGGTAALGCLVKDYFPEPVTVSWNSGALTSGVHTFPAVLQSSGLYSLSSVVTVPSSSLGTQTYICNVNHKPSNTKVDKRVEPKSCDKTHTCPPCPAPELLGGPSVFLFPPKPKDTLMISRTPEVTCVVVDVSHEDPEVKFNWYVDGVEVHNAKTKPREEQYNSTYRVVSVLTVLHQDWLNGKEYKCKVSNKALPAPIEKTISKAKGQPREPQVCTLPPSREEMTKNQVSLSCAVKGFYPSDIAVEWESNGQPENNYKTTPPVLDSDGSFVLVSKLTVDKSRWQQGNVFSCSVMHEALHNHYTQKSLSLSPG
light: DIVMTQSPLSLPVTPGEPASISCRSSQSLVHSNGNTYLEWYLQKPGQSPQLLIYKVSNRFSGVPDRFSGSGSGTDFTLKISRVEAEDVGVYYCFQGSHFPRTFGQGTKLEIKRTVAAPSVFIFPPSDEQLKSGTASVVCLLNNFYPREAKVQWKVDNALQSGNSQESVTEQDSKDSTYSLSSTLTLSKADYEKHKVYACEVTHQGLSSPVTKSFNRGEC
modifications: left off: another chain or arm of the molecule; small tags and cut ends

Tests used:
Assay type in all cases: cell-based
N6/ADR cells = assay: Cytotoxicity potency assay (antibody titrated, vincristine constant)
Procedure: The relative potency of the samples was evaluated using N6/ADR cells. These cells expressed both ABCB1 and CD47 with the expression of CD47 ˜40-fold higher than ABCB1 as determined by staining with R-phycoerythrin (R-PE) conjugated, commercially available antibodies against ABCB1 (UIC2, Biolegend) and CD47 (CC2C6, Biolegend). This assay also examined the effect of antibodies on vincristine-induced cytotoxicity using the drug-resistant cell line, N6/ADR. However, in this assay format the concentration of vincristine was held constant while the ABCB1 x CD47 BsAbs (or isotype control antibodies) were serially diluted. This assay measured antibody IC50. Lower IC50 meant higher antibody potency.
The potency assay was performed as follows. Cells were plated in 0.05 mL of assay media at 5000 cells/well in white flat bottom 96-well tissue culture plates and incubated overnight at 37° C., 5% CO2. […] An equivalent volume (0.05 mL) diluted antibody/vincristine mixture was transferred to the N6/ADR cells and incubated at 37° C., in 5% CO^2. After 72 hours, plates were removed from the incubator and allowed to equilibrate to room temperature. Viability was assessed using the Promega® CellTiter-Glo® Luminescent Cell Viability Assay according to the manufacturer's recommended protocol.

[1] = system: cynomolgus Red Blood Cells; assay: Antibody binding to cynomolgus red blood cells by flow cytometry; conditions: percent of RBC in the R3 gate
Procedure: (§1) Antibody binding to human and cynomolgus RBC was assessed by flow cytometry. Normal human and cynomolgus whole blood was obtained from BiolVT. RBC were prepared by centrifugation of whole blood aliquots (0.5 mL) for 5 min at 500xg. Supernatant (plasma) was removed, and RBC washed 3 times in D-PBS+1 mM EDTA. After the final wash, the RBC were resuspended in D-PBS+1 mM EDTA to a final volume of 0.5 mL. Washed RBC were then diluted in flow cytometry buffer (D-PBS+2% FBS+0.05% sodium azide) to 2% and dispensed at […] into 96-well plates. An equivalent volume ([…]) of antibody serially diluted in flow cytometry buffer to 2× final was added to the RBC, and the mixture incubated for 1 hour at room temperature. Next, RBC were washed 3 times with flow cytometry buffer and resuspended in 50 μL of Alexa Fluor®647 conjugated Fab fragment goat anti-human IgG diluted 1:200 in flow cytometry buffer. After 20 minutes at room temperature RBC were washed twice, resuspended in flow cytometry buffer and analyzed using an Invitrogen™ Attune™ NXT flow cytometer. […] Left panel, RBC are gated (R1) based on forward and side scatter. Middle panel, a second gate (R2) is applied to eliminate any remaining doublets or aggregates. Right panel, fluorescence of the R2 gated cells is assessed and a final gate (R3) is set using unstained RBC. Cells falling in the R3 gate are defined as “positive” for binding and reported as the percent (of R2 gated cells) that fall in the R3 gate. The results are presented at percent positive which represents the percent of RBC in the R3 gate.

human Red Blood Cells = assay: Antibody binding to human red blood cells by flow cytometry; conditions: percent of RBC in the R3 gate
Procedure: as §1

Molecule	potency increasing cytotoxicity (N6/ADR cells)	Binding to cynomolgus Red Blood Cells % Positive Cy744 ([1]; donor Cy744) [%]	Binding to cynomolgus Red Blood Cells % Positive Cy745 ([1]; donor Cy745) [%]	Binding to cynomolgus Red Blood Cells % Positive Cy747 ([1]; donor Cy747) [%]	Binding to human Red Blood Cells % positive D834 (human Red Blood Cells; donor D834) [%]	Binding to human Red Blood Cells % positive D835 (human Red Blood Cells; donor D835) [%]	Binding to human Red Blood Cells % positive D836 (human Red Blood Cells; donor D836) [%]	Binding to human Red Blood Cells % positive D837 (human Red Blood Cells; donor D837) [%]
B1	lesser potency than the corresponding bispecific antibodies	0.3	0.6	4.0	0.2	0.2	0.1	0.1
B2	lesser potency than the corresponding bispecific antibodies	–	–	–	–	–	–	–
